Laboratory results from publication PMC2651774.

Biological target: GST-CR3 (HAdV-5 E1A residues 139–204 fused to GST) (human adenovirus type 5 (HAdV-5)) (UniProt P03255)
Test: pull-down

GST-CR3 (HAdV-5 E1A residues 139–204 fused to GST) (human adenovirus type 5 (HAdV-5)), sequence (P03255 139-204): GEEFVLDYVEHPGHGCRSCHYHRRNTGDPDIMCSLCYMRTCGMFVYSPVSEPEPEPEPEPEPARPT
Full-length, purified FLAG-tagged CBP (CREB-binding protein), Q92793 1-2442 (natural protein), sequence (Q92793 whole entry): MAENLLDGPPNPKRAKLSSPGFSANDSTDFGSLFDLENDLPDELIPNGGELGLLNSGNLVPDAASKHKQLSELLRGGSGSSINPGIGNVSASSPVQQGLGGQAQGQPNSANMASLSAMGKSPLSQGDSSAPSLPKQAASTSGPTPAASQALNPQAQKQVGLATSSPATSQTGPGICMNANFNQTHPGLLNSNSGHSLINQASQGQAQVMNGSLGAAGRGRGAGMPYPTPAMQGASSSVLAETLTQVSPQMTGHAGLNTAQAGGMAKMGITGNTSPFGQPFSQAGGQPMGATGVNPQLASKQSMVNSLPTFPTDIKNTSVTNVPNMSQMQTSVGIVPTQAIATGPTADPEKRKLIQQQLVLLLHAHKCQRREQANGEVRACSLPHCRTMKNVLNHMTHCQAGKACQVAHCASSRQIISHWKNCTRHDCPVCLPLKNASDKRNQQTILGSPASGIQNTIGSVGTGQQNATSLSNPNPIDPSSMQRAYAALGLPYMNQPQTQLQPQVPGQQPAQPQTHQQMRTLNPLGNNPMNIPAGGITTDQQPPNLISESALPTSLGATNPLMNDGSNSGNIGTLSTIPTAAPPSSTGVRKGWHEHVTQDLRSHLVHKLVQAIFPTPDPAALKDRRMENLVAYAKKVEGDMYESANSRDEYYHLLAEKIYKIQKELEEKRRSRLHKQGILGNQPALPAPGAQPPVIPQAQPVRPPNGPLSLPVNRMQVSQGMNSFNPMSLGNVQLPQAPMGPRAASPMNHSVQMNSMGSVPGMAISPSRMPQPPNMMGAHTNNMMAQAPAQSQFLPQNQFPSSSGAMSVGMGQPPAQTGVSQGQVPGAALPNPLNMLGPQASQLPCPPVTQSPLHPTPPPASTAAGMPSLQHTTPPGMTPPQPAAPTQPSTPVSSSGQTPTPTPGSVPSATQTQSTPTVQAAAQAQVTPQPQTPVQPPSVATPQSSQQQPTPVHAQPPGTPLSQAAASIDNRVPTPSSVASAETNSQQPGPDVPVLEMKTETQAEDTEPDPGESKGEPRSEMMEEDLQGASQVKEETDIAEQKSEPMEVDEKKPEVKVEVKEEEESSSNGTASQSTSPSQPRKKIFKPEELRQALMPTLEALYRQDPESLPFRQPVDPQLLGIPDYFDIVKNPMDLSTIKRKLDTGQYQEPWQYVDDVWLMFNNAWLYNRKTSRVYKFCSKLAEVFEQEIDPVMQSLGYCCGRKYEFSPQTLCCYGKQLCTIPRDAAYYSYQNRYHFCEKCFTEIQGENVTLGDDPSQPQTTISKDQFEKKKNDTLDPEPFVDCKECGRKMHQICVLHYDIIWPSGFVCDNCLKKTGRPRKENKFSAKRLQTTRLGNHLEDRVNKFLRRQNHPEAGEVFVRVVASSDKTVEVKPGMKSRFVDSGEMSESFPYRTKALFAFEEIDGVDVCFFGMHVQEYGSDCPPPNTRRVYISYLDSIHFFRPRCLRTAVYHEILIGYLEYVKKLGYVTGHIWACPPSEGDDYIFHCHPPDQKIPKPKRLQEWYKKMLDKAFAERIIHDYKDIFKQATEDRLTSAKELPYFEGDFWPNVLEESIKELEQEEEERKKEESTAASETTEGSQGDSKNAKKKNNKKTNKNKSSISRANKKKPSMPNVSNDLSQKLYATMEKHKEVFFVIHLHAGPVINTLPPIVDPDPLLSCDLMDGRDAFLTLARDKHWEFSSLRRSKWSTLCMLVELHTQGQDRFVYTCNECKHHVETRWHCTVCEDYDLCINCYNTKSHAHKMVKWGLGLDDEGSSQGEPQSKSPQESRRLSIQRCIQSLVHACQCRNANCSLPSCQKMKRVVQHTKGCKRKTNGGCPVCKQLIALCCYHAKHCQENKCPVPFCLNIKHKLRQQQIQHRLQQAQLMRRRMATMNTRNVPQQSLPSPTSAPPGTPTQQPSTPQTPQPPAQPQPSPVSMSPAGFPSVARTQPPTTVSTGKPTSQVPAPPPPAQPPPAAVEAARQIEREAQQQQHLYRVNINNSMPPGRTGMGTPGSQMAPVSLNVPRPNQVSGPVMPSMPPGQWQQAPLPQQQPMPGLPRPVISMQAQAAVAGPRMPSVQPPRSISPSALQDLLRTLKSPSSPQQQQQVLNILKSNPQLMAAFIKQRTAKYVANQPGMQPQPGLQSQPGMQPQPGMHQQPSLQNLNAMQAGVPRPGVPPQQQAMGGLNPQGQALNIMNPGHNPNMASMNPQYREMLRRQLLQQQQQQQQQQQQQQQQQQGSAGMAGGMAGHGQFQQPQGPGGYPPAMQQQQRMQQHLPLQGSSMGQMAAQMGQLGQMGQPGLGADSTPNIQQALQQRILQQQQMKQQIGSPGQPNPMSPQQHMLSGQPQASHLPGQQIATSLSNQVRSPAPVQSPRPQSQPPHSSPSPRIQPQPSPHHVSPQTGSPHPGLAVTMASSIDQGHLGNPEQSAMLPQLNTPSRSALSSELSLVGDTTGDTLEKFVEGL

## Full-length, purified FLAG-tagged CBP (CREB-binding protein), Q92793 1-2442 (natural protein)
  reduction of the interaction on addition of HeLa total cellular extract: 50%
